The text below walks through data of patent US20120207673A1.

Sequence of DP47 VH with CDR2 of HEL4 (VH): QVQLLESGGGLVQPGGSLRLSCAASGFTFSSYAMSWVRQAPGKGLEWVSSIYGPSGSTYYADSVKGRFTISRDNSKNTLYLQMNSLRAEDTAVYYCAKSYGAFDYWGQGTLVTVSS

For the first experiment, the target named is protein A (UniProt P38507). Put plainly: phage ELISA on coated protein A; heat/cool assay, % of untreated sample. On the technique in general: ELISA stands for enzyme-linked immunosorbent assay.
DP47 VH SYA31-33DED: the Retained binding to protein A is 67%.

The next experiment addresses protein A (UniProt P38507). Put plainly: phage ELISA on coated protein A; heat/cool assay, % of untreated sample (n = 2).
Take DP47 VH SA_31/33_DD: the Retained binding to protein A (%) stood at 52%.
Substance DP47 VH SYA31-33DED yielded a Retained binding to protein A (%) of 69%.
Take DP47 VH SYA_31-33_DDD: the Retained binding to protein A (%) was determined as 66%.
With DP47 VH SY_31/32_DD, the Retained binding to protein A (%) was determined as 62%.
Regarding DP47 VH SY_31/32_DE, the Retained binding to protein A (%) came out at 50%.
Consider DP47 VH YA_32/33_DD, for which the Retained binding to protein A (%) is 64%.
Regarding DP47 VH YA_32/33_ED, the Retained binding to protein A (%) was found to be 59%.

The next experiment concerns the target protein A (UniProt P38507). Briefly: phage ELISA on coated protein A; signal after 80 C 10 min then 4 C 10 min as % of the untreated sample (heat/cool assay).
On to DP47 VH with CDR2 of HEL4, for which the Retained binding to protein A is 4%.
On to DP47 VH with CDR3 of HEL4, for which the Retained binding to protein A amounted to 3%.
